Results: PMC8044712 (STAR Protocols, 2021)

Biological target: T1, ΔN100 y-mtRNAP (yeast mitochondrial RNA polymerase lacking the N-terminal 100 residues) (S. cerevisiae, UniProt P13433 101-1351)
T1 sequence (looked up): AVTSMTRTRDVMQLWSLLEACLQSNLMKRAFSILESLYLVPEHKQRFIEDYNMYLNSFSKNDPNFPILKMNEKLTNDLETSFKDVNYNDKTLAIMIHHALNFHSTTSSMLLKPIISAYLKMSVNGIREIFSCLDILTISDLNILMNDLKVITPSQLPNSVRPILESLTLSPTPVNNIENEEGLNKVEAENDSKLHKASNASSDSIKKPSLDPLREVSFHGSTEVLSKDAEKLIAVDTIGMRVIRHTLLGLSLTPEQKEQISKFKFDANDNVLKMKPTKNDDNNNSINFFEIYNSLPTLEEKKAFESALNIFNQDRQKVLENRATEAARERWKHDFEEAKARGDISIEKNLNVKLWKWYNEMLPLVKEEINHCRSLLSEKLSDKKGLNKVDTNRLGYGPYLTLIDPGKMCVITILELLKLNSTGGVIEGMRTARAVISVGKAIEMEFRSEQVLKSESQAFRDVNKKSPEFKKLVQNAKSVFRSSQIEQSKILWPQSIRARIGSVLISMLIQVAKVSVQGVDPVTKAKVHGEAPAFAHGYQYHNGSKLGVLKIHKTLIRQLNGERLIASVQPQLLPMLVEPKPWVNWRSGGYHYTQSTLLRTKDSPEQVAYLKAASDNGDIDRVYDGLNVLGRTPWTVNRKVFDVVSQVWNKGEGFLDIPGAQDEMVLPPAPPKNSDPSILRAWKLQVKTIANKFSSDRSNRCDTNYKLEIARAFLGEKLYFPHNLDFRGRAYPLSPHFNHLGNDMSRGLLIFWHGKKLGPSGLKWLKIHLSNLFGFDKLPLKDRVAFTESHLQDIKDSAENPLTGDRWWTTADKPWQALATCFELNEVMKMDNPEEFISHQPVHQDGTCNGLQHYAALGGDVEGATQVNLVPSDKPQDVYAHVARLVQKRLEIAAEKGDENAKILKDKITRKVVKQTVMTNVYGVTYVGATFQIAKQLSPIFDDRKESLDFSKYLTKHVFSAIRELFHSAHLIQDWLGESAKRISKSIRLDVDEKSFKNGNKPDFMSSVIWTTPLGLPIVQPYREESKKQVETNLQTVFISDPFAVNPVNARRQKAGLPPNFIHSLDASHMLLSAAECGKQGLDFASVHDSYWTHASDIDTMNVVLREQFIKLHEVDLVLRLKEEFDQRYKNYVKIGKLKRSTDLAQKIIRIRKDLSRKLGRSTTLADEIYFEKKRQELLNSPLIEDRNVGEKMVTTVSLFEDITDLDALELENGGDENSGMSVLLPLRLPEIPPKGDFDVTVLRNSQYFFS
Experiment: cryo-EM structure

B1: His-6 tagged MTF1 from S. cerevisiae (mitochondrial transcription initiation factor MTF1) (natural protein)
chain: SVPIPGIKDISKLKFFYGFKYLWNPTVYNKIFDKLDLTKTYKHPEELKVLDLYPGVGIQSAIFYNKYCPRQYSLLEKRSSLYKFLNAKFEGSPLQILKRDPYDWSTYSNLIDEERIFVPEVQSSDHINDKFLTVANVTGEGSEGLIMQWLSCIGNKNWLYRFGKVKMLLWMPSTTARKLLARPGMHSRSKCSVVREAFTDTKLIAISDANELKGFDSQCIEEWDPILFSAAEIWPTKGKPIALVEMDPIDFDFDVDNWDYVTRHLMILKRTPLNTVMDSLGHGGQQYFNSRITDKDLLKKCPIDLTNDEFIYLTKLFMEWPFKPDILMDFVDMYQTEHSG
B1: binds.
